What was measured:
[1] = test system: GST fused MED12, BAF155 and PABP1 peptides; experiment: In vitro methylation of GST fused peptides by recombinant CARM1 proteins, autoradiography; format: biochemical; conditions: 3H-SAM, 1–4 h, 30 °C; compared with CARM1 FL and CARM1 28–608
Experimental: The FL and N-terminal domain-deleted version of human CARM1 cDNAs, and other PRMT FL cDNAs were cloned into pFN21K Halo Tag CMV Flexi mammalian expression vector (Promega, Madison, WI) using the unique Sgfl and Pmel site[55]. To express the protein, DNA constructs were transiently transfected into HEK293T CARM1 KO cells in 15 cm dishes using transIT-LT1 reagent (Mirus Bio, Madison, WI) according to the manufacturer's protocol. Proteins were allowed to express for 48 h. Cell pellets were then collected and lysed in lysis buffer (50 mM HEPES, pH 7.5, 150 mM NaCl, 0.005% NP-40, 0.5 mM EDTA, supplemented with 1 × protease inhibitor cocktail before use). The cells were sonicated on ice using a Branson Sonifier 450 with a microtip at 35% amplitude (10 s on, 30 s off, 6 cycles). The crude lysate was cleared by centrifugation (15,000 r.p.m., 4 °C, 20 min). […] The resin was centrifuged at 3,000 r.p.m. for 5 min, and the supernatant containing the cleaved protein was collected and protein concentration was determined using the Bradford assay (Thermo Scientific, Rockford, IL). Protein purity was assessed by running SDS–PAGE and Coomassie Blue staining.
The DNA fragments were cloned into pGEX-2T GST expression vector (GE Healthcare, Waukesha, WI). […] Protein concentration was then determined using Bradford assay and protein purity was assessed by SDS–PAGE and Coomassie Blue staining. […]

HEK293T CARM1 KO cells = experiment: Total ADMA-containing proteins co-precipitated with FLAG-tagged CARM1, western blot; format: cell-based; conditions: FLAG IP probed with ADMA antibody; compared with CARM1 FL and CARM1 28–608
Text: The structure of the N-terminal domain of CARM1 (residues 28–140) resembles those of the EVH1 domains, a subfamily of PH domains that bind proline-rich sequences. With our discovery that CARM1 substrates contain proline-rich motifs, we posited that the protein's N-terminal domain may be required for substrate recognition. To test this hypothesis, we generated three CARM1 constructs: one full-length (CARM1 FL) and two N-terminal truncations CARM1 28–608 and CARM1 140–608 (Fig. 3a). […] We transiently transfected the three FLAG-tagged CARM1 fusion constructs in HEK293T CARM1 KO cells. CARM1 was immunoprecipitated from all three cell lines using anti-FLAG M2 resin, and four known CARM1 substrates/interactors (that is, BAF155 (ref. [20]), MED12 (ref. [30]), PABP1 (ref. [36]) and NCOA3 (ref. [19])) and newly identified TET2 were detected by western blotting. […]
Cells were collected by trypsinization, washed with Dulbecco's phosphate buffer saline (Life Technologies, Carlsbad, CA) and lysed by suspension in lysis buffer (50 mM Tris-HCl pH 8.0, 150 mM NaCl, 10% glycerol, 0.5% Triton X-100 and 1 × protease inhibitor cocktail (Sigma-Aldrich)). After brief sonication followed by centrifugation, total protein was quantified using the BioRad Protein Assay (BioRad, Hercules, CA), and 20 μg protein was resolved by SDS–PAGE. […]

MCF7 CARM1 KO cells = experiment: Quantitative MS of ADMA-containing peptides in MCF7 CARM1 KO cells expressing CARM1 28-608 or CARM1 140-608, and in CARM1 KO; format: cell-based, human; conditions: stable CARM1 140–608 in MCF7 CARM1 KO cells; reference CARM1 28–608; three biological replicas

B1: CARM1 140–608: CARM1 140–608 lacks the first 140 residues encompassing the EVH1 domain (protein)
chain: RTEESSAVQYFQFYGYLSQQQNMMQDYVRTGTYQRAILQNHTDFKDKIVLDVGCGSGILSFFAAQAGARKIYAVEASTMAQHAEVLVKSNNLTDRIVVIPGKVEEVSLPEQVDIIISEPMGYMLFNERMLESYLHAKKYLKPSGNMFPTIGDVHLAPFTDEQLYMEQFTKANFWYQPSFHGVDLSALRGAAVDEYFRQPVVDTFDIRILMAKSVKYTVNFLEAKEGDLHRIEIPFKFHMLHSGLVHGLAFWFDVAFIGSIMTVWLSTAPTEPLTHWYQVRCLFQSPLFAKAGDTLSGTCLLIANKRQSYDISIVAQVDQTGSKSSNLLDLKNPFFRYTGTTPSPPPGSHYTSPSENMWNTGSTYNLSSGMAVAGMPTAYDLSSVIASGSSVGHNNLIPLANTGIVNHTHSRMGSIMSTGIVQGSSGAQGSGGGSTSAHYAVNSQFTMGGPAISMASPMSIPTNTMHYGS
modifications: left off: FLAG, end not stated, kept
notes: CARM1 140–608 lacks the first 140 residues encompassing the EVH1 domain
[1]
  Methylation of GST fused MED12, BAF155 and PABP1 peptides and other protein substrates: greatly reduced ability
HEK293T CARM1 KO cells
  Abundance of CARM1-interacting (ADMA-containing) proteins: global decrease in abundance of CARM1-interacting proteins
MCF7 CARM1 KO cells
  Abundance of ADMA-containing peptides: massive reduction in abundances of ADMA-containing peptides

Source: publication PMC5458078, “Global mapping of CARM1 substrates defines enzyme specificity and substrate recognition” (Nature Communications, 2017)
